Consider five sequences from article PMC3323551.

The target of data set [1] is T1, His-OpaR (Vibrio parahaemolyticus RIMD 2210633) (UniProt Q79YV4).
T1 sequence: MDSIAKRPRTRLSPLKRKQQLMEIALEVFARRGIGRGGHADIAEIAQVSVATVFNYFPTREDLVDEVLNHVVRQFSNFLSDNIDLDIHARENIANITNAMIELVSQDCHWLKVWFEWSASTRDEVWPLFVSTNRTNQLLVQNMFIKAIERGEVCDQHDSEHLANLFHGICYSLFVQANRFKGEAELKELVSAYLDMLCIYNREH
In words: EMSA. Conditions: 1 mM MgCl2, 0.5 mM EDTA, 0.5 mM DTT, 50 mM NaCl, 10 mM Tris-HCl pH 7.5, 0.05 mg/ml poly(dI-dC), room temperature, 30 min; footprinting same buffer, then …. For orientation: A gel shift assay detects complexes by their altered migration in electrophoresis.

Data set [2] deals with T1, His-OpaR (Vibrio parahaemolyticus RIMD 2210633). In words: DNase I footprinting. Conditions: 1 mM MgCl2, 0.5 mM EDTA, 0.5 mM DTT, 50 mM NaCl, 10 mM Tris-HCl pH 7.5, 0.05 mg/ml poly(dI-dC), room temperature, 30 min; footprinting same buffer, then ….

For “AACCGTGAAATCCATTTACTGAGGTATTTTTCCTCATTAATTAGCAGTATAGGGTAAAAATATGAAAGCTAATGGATAATCATAAAGTAGTAGTTGGTTTTTTGCTGAGAAAGTGATTAGTAGCAATGTAACAAGTGGCATATTTGCATGCTATTGCATTTTGCAAATGCAATTTGCGAAAGTGCTGGTTAATAATGCGTCG (double strand) [qrr4 promoter fragment]”, the binding entry in data set [1] and in data set [2] was “binds” throughout.
As for “AACTTCCAACCACATAATTGCGCAGCAAATAACCAGACATTTACACTACAAAAAACCCATAAAATACCAACAAATTAGAATTATTAACTACAAAATAACTCTATTGAGTATTATGTTAGTTTTTCAGGGTAATTTTGTCCTAGTATTCCACTTCATGCTTATTATTTATATACTACTTGCCTGCTGAGAGCTCATAAATCCAATCATACCTGCTCCAGCC (double strand) [aphA promoter fragment]”, the binding result in data set [1] and in data set [2] was “binds” in each case.
As for “AGTGGGTTGAAAGTCACATCCTTTTGCGGAAAATTCTTGGGAGCGCTGCCAAATTTTCGAAAGTTTACAGCAAAACTTATCAATAATAATGACATTACTGTCTATAAATTATCCATCAGATGTTGACCTTGTGCATATGCACCATTACACTCATCACTGCTTAAAGCAATTATTAAAATAATCAATTAGGGGGTTACCCCCAACAACAACTCAAATGGCAAGGAAAATGGATATGGACTCAATTGCAAAGAGACCTAGAACTAGGC (double strand) [opaR promoter footprinting fragment]”, the binding result in data set [2] is “binds”.
Turning to “AGTGGTTGCTTATGAATCAATCCCAGGAAAAGGCGAGAACAGCGAACCTTCAACTCGTTAACATTTTATTTTCATTTACATTTTGACTAACTCAATTGTTAATAAATTACCTAAATTGCATTTTGAAATTGCAGAATGCAATTAAGTTTTGTTTTTTGCAAAAATTTATATAGGCAATATCAGTTTATATGAGATCTTGTGCCCAAAAATAAAGCTTTGAAAATTGGCATGATTAATGCATAATACTTCTCGACC (double strand) [qrr2 promoter fragment]”, the binding entry in data set [1] and in data set [2] was “binds” throughout.
For the sequence “GGATAAGTTCAAATTGGATCCAGCCTTAGCAGGCTCGGTTATTCTAACGACAGTGACAGATGTGGTTGGTTTTTTCGCCTTTTTGGGAACGGCGAGTTTAGTCATGCTCTAAAAAGTCCACTGTTTATTAATCAATCATTAGCATAATAGAGACAAATTGCATAACGCACTTGCAAATTGCAAAAACATTCAAAGTTTAAGCAACGTATGTCACAGAAACCAC (double strand) [qrr3 promoter fragment]”, the binding entry in data set [1] and in data set [2] was “binds” each time.
